The target of this series is T1, IRF1 DBD-mNeonGreen (UniProt P10914 1-136).
T1 sequence: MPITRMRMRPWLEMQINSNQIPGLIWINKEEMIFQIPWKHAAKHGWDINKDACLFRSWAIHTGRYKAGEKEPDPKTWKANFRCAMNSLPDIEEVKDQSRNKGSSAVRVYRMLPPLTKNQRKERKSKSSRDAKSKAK
In words: mass photometry; 1:1 protein:DNA; ~45 to ~65 kDa; 1:1 molar protein:DNA, 4 h at room temperature; protein lysed in PBS with 360 mM NaCl, 10% glycerol, DTT (assay buffers and pH not given); PBM: PBS, 360 mM NaCl, 1 mM DTT, 2% milk, 0.2% Triton X-100, room temperature. To be noted: protein: recombinant; tags: mNeonGreen fusion (42 kDa total); blunt.

B1: specific DNA (IRF1 consensus) (dsDNA)
DNA 1: GAGAAGTGAAAGTACTTTCACTTCTC
DNA 2: GAGAAGTGAAAGTACTTTCACTTCTC
In the case of B1, the binding result is “binds”.

The values are drawn from paper PMC12887176, “IRF1 is a context-dependent homeostatic gatekeeper of basal immunity and antiviral readiness”.
